These results are taken from paper PMC3122231.

Like-named read-outs stand apart in the source and are kept apart here.

Experiment [1] addresses F-actin prepared from rabbit skeletal muscle (rabbit) (UniProt P68135). The experiment in a line: co-sedimentation.
The target in experiment [2] is rhodamine-phalloidin-labeled, 10% biotinylated filamentous actin (UniProt P68135). Nature of the experiment: optical trapping.
The target of experiment [3] is F-actin prepared from rabbit skeletal muscle (rabbit) (UniProt P68135). The experiment in a line: co-sedimentation. This is another data set of the same source.

The term Kd denotes the constant that tells how readily two partners part at equilibrium. Lower therefore signals a tighter complex. Broadly, the koff is the first-order rate constant of dissociation. Read a low koff as a long-lived complex. The substance “Drosophila myosin-18 M-PDZ (minimal motor domain construct with the N-terminal PDZ domain) (domain or fragment)” came in with an equilibrium dissociation constant (Kd) in experiment [1] of 1.5 µM. Further, the koff in experiment [2] was 94.2 s⁻¹. Further, in experiment [3], the dissociation constant (Kd) is 2.6 µM and the fraction bound in the first sedimentation at 20 μM actin stood at 54.9%.
Turning to “Drosophila myosin-18 M-ΔPDZ (minimal motor domain construct without the PDZ domain) (domain or fragment)”, the Kd in experiment [1] and in experiment [3] was 1 µM throughout. Further, the koff in experiment [2] is 57 s⁻¹.
